Measurements published in the supplement of paper PMC10065799, “High-throughput profiling of sequence recognition by tyrosine kinases and SH2 domains using bacterial peptide display” (eLife, 2023).

How the values were obtained:
AncSZ = experiment: phosphorylation enrichment, bacterial display (enrichment ratio); higher = better substrate or ligand; peptides without Tyr show the background
Fyn = Fyn (UniProt P06241); experiment: as above
FGFR1 = FGFR1 (UniProt P11362); experiment: as above
EPHB1 = EPHB1 (UniProt P54762); experiment: as above
c-Src = experiment: as above
Fer (mouse) = experiment: as above
Fes = Fes (UniProt P07332); experiment: as above
c-Abl (mouse) = experiment: as above
Jak2 = Jak2 (UniProt O60674); experiment: as above
MERTK = MERTK (UniProt Q12866); experiment: as above
FGFR3 = FGFR3 (UniProt P22607); experiment: as above
EPHB2 = EPHB2 (UniProt P29323); experiment: as above
Hck = Hck (UniProt P08631); experiment: as above
Grb2 SH2 = Grb2 SH2 (UniProt P62993); experiment: SH2 binding enrichment of the phosphorylated peptide, bacterial display (enrichment ratio); higher = better substrate or ligand; peptides without Tyr show the background
SHP2-C SH2 = experiment: as above
c-Src SH2 = experiment: as above
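Throughout, for SH2 binding enrichment of the phosphorylated peptide, bacterial display: peptide library displayed on the E. coli surface as eCPX fusions, selected cells deep-sequenced, score is each peptide's frequency after selection divided by its frequency in the input.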
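Throughout, for phosphorylation enrichment, bacterial display: 11-residue human phosphosite peptides and single-mutation variants displayed on the E. coli surface, counted by deep sequencing, each peptide's frequency after selection divided by its frequency in the unselected input library; frequency after pTyr selection over input frequency; kinase dosed for 20-30% of maximal phosphorylation in three min.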

Chain of Jak2 (O60674 whole entry, looked up): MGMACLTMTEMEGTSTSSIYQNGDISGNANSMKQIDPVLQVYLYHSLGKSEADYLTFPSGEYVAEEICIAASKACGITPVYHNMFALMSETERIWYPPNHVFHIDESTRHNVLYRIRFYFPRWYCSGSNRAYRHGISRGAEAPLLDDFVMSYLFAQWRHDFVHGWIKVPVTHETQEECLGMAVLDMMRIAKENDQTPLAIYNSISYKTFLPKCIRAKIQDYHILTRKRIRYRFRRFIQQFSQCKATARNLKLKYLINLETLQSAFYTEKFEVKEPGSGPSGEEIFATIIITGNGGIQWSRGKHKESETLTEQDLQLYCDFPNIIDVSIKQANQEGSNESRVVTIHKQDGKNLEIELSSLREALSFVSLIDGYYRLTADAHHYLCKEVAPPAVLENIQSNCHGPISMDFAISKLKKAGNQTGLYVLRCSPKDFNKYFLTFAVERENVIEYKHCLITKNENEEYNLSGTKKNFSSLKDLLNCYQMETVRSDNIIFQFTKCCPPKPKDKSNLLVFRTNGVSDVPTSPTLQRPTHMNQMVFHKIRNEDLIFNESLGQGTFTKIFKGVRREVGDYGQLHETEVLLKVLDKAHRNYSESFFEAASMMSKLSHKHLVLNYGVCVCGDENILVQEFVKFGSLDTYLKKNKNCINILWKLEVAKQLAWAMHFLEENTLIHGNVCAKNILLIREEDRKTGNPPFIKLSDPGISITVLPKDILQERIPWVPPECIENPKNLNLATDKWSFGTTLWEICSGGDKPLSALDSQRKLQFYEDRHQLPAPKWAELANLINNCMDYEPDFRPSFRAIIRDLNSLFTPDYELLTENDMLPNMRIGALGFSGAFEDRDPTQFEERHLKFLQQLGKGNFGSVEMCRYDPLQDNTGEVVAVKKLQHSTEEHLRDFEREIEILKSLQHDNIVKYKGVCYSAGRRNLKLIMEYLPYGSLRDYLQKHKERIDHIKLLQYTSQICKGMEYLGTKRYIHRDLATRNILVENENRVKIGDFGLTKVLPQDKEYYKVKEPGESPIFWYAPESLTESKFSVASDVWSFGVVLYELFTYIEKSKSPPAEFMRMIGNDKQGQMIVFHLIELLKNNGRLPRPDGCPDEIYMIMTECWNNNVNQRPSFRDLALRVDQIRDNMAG
Chain of Fyn (P06241 whole entry, looked up): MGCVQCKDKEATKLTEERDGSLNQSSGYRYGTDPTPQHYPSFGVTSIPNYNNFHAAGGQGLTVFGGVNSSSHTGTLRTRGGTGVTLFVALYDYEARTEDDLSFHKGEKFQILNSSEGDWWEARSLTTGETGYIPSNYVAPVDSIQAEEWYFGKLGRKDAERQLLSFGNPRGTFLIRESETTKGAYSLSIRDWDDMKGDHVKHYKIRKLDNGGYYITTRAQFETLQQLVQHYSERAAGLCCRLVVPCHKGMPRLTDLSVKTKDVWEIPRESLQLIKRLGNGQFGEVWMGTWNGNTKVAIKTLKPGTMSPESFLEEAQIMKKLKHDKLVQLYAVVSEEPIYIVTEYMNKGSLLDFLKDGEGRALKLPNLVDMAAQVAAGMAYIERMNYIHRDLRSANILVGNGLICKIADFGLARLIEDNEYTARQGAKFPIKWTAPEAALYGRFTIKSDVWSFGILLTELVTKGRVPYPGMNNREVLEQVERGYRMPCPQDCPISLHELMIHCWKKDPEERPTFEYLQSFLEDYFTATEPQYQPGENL
Chain of MERTK (Q12866 whole entry, looked up): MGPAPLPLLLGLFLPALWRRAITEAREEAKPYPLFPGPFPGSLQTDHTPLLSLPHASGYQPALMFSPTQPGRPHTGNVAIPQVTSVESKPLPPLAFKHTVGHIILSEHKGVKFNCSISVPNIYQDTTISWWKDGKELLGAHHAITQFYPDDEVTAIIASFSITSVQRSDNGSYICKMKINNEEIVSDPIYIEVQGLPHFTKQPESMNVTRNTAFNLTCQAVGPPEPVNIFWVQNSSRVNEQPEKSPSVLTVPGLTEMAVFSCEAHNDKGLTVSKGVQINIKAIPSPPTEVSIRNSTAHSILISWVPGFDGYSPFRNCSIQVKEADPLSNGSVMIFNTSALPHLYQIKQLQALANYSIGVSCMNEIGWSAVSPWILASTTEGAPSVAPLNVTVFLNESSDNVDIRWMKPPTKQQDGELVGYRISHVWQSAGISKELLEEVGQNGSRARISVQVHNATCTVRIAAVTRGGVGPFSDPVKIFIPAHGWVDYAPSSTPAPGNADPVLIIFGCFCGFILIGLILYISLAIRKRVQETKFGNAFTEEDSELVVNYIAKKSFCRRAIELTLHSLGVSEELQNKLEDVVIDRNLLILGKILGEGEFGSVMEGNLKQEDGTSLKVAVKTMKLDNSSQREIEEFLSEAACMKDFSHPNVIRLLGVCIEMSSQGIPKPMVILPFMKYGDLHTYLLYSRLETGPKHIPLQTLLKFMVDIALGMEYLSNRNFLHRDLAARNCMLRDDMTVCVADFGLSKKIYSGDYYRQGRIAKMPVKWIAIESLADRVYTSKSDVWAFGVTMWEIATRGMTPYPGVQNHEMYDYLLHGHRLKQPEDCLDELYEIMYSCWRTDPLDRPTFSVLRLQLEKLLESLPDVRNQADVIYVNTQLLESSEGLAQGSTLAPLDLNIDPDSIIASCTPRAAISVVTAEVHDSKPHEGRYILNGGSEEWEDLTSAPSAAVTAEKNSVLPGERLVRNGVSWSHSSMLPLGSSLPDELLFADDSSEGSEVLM
Chain of FGFR3 (P22607 whole entry, looked up): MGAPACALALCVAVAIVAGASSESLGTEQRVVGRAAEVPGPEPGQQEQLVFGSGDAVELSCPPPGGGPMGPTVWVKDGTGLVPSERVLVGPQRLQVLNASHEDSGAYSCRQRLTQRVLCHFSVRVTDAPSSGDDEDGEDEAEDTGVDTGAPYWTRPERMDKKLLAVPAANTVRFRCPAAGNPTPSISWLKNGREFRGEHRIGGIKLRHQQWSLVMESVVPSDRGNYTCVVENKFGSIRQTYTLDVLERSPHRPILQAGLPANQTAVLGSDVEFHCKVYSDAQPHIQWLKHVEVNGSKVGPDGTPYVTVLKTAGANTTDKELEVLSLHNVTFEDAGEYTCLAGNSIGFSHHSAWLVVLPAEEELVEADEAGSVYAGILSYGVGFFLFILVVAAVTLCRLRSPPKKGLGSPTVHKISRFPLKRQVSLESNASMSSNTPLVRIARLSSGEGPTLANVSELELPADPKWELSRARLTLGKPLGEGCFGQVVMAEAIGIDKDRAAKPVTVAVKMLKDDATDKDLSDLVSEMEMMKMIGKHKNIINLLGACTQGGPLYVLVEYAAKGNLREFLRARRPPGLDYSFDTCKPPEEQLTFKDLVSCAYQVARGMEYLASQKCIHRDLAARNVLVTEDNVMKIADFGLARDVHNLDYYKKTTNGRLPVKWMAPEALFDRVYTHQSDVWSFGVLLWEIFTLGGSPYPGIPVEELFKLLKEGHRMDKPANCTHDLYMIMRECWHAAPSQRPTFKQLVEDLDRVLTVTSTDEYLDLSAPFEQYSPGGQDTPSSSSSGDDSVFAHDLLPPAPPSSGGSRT
Chain of EPHB1 (P54762 whole entry, looked up): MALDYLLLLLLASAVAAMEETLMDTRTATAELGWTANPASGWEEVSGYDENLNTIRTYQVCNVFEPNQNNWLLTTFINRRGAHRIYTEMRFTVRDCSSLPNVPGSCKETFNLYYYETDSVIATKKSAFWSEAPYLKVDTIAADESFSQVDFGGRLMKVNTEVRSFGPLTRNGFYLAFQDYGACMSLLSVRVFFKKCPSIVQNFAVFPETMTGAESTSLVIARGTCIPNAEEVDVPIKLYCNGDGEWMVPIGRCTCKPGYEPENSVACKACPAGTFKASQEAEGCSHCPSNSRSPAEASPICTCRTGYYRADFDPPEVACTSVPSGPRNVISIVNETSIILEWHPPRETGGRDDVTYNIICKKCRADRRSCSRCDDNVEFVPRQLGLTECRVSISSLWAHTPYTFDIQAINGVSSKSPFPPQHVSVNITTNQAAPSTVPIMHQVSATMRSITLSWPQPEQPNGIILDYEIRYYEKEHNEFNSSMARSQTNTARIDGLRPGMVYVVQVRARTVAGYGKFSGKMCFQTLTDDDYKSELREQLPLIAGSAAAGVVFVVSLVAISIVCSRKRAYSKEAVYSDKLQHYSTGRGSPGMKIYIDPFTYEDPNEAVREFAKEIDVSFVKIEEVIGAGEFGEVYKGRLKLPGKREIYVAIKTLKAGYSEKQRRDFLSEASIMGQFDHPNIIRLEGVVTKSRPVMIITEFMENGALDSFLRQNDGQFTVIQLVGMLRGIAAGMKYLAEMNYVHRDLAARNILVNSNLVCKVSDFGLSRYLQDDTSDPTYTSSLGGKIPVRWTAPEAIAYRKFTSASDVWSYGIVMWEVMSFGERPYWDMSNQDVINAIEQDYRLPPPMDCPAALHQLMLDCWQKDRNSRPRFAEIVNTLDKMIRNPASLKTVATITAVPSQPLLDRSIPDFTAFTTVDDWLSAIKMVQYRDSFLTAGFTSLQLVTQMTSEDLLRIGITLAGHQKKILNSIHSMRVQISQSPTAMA
Chain of Hck (P08631 whole entry, looked up): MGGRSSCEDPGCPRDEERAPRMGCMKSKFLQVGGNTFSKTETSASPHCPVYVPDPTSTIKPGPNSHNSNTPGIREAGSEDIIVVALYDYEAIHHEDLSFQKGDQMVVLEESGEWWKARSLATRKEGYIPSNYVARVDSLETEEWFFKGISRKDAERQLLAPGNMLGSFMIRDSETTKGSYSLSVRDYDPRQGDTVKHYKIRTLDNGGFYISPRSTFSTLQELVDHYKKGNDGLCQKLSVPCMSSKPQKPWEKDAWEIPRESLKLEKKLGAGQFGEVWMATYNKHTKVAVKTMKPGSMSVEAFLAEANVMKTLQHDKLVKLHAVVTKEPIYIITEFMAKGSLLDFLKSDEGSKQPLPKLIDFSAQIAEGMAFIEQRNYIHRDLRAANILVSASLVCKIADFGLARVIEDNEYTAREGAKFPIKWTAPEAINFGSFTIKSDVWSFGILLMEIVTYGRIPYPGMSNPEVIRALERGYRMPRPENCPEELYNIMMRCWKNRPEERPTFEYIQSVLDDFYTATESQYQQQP

Sequence	phosphorylation enrichment (AncSZ)	phosphorylation enrichment (Fyn)	phosphorylation enrichment (FGFR1)	phosphorylation enrichment (EPHB1)	phosphorylation enrichment (c-Src)	phosphorylation enrichment (Fer (mouse))	phosphorylation enrichment (Fes)	phosphorylation enrichment (c-Abl (mouse))	phosphorylation enrichment (Jak2)	phosphorylation enrichment (MERTK)	phosphorylation enrichment (FGFR3)	phosphorylation enrichment (EPHB2)	phosphorylation enrichment (Hck)	SH2 binding enrichment (Grb2 SH2)	SH2 binding enrichment (SHP2-C SH2)	SH2 binding enrichment (c-Src SH2)
RGVTHYILQTF [SLC39A4_Y359]	1.09	0.499	0.664	0.394	0.48	0.582	1.27	0.944	1.24	0.553	0.905	0.703	0.711	1.33	1.2	1.05
QLAPQYTFTQG [FLNA_Y1761_A1764T_YF]	1.27	1.09	0.918	0.621	1.12	0.58	1.09	1.49	1.21	1.1	0.982	0.845	0.748	0.915	0.5	0.635
NVQIVYKPVDL [MAPT_Y627_S622N]	0.955	0.414	0.532	0.507	0.415	0.502	0.903	0.723	0.796	0.354	0.648	0.492	0.477	0.982	0.738	0.58
NARGLYFKLHN [GATA2_Y376_C373R_YF]	1.51	0.487	0.554	0.622	0.542	0.657	1.34	0.896	1.67	0.476	0.87	0.634	0.53	0.988	0.88	0.624
HTLQLYRCREE [ALPK3_Y342]	0.953	0.573	0.898	0.499	0.603	0.575	1.03	0.329	0.574	0.607	0.7	0.588	0.522	0.672	0.658	0.406
EEGNPYYSSTR [MCCC2_Y520_A524T]	1.1	0.921	0.672	0.595	1.44	0.722	1.1	0.67	0.693	0.428	0.74	0.531	1.25	0.82	1.15	1.22
GHNDVYISKHV [GRIN2A_Y1423_E1426K]	0.373	0.423	0.323	0.254	0.352	0.313	0.536	0.376	0.391	0.347	0.364	0.333	0.412	0.79	0.651	0.395
PPNSPYMGSSP [KCNT1_Y740_I741M]	1.01	0.546	0.632	0.497	0.59	0.612	0.868	0.782	0.825	0.468	0.818	0.536	0.521	0.869	0.759	0.481
GRVLGYGAFRK [FLT4_Y853_G857R]	0.634	0.517	0.477	0.44	0.52	0.406	0.586	0.644	0.539	0.482	0.495	0.432	0.486	0.671	0.733	0.549
VNYQPYRKHKY [TEX37_Y28_D24N]	0.578	0.352	0.419	0.367	0.537	0.41	0.498	0.688	0.409	0.351	0.501	0.444	0.451	0.777	0.771	0.568
NIISFYLSRDP [CTSD_Y232_F229I]	1.18	0.446	0.516	0.529	0.346	0.43	1.27	0.655	0.958	0.36	0.773	0.498	0.451	1.59	1.41	1.11
TSNQEYLYLSM [FGFR1_Y766_D768Y]	2.64	2.08	12.5	2.28	2.88	0.845	1.31	0.975	3.5	5.28	8.18	1.83	2.67	0.812	0.553	0.447
PLYGEYFTLQI [TP53_Y327_D324Y]	4.94	16.3	17.6	15.8	12.6	3.72	2.44	9.14	15.3	9.96	14.9	18.6	11.6	0.816	0.809	0.444
LINPKYSVEEE [PCDH19_Y27_L25P]	1.8	0.797	0.753	1.06	0.608	0.977	2.28	1.39	1.65	0.836	1.36	0.986	0.55	1.92	0.548	0.786
DKNSSYFADWF [TUBB8_Y340_L345F]	0.992	0.479	2.44	0.676	0.435	0.345	1.01	0.613	1.32	2.04	1.62	0.507	0.397	0.984	0.821	0.681
YSGDCYRIQGR [DDR2_Y741_Y740C]	0.818	0.475	0.483	0.468	0.374	0.49	0.83	0.552	0.735	1.25	0.715	0.514	0.564	0.798	0.506	0.615
VSAPEYGPKLK [TBC1D14_Y46_L41V]	0.644	0.437	0.476	0.452	0.369	0.452	0.678	0.469	0.556	0.394	0.504	0.391	0.465	0.876	0.667	0.497

Sequence	phosphorylation enrichment (AncSZ)	phosphorylation enrichment (Fyn)	phosphorylation enrichment (FGFR1)	phosphorylation enrichment (EPHB1)	phosphorylation enrichment (c-Src)	phosphorylation enrichment (Fer (mouse))	phosphorylation enrichment (Fes)	phosphorylation enrichment (c-Abl (mouse))	phosphorylation enrichment (Jak2)	phosphorylation enrichment (MERTK)	phosphorylation enrichment (FGFR3)	phosphorylation enrichment (EPHB2)	phosphorylation enrichment (Hck)	SH2 binding enrichment (Grb2 SH2)	SH2 binding enrichment (SHP2-C SH2)	SH2 binding enrichment (c-Src SH2)
HNLDYYKETTN [FGFR3_Y648_K650E]	1.25	0.597	2.08	0.633	0.47	0.766	1.06	0.788	1.01	0.553	2.12	0.857	0.734	1.24	0.874	0.732
SFSGEYGSGGG [ZG16_Y30_G32S_YF]	0.556	0.43	0.423	0.34	0.512	0.46	0.658	0.564	0.563	0.327	0.432	0.454	0.496	0.885	0.728	0.409
SVVLPYEPPEV [TP53_Y220_V218L]	1.47	0.456	0.538	0.686	0.592	0.746	1.12	0.945	0.98	0.47	0.704	0.797	0.518	0.791	0.861	0.963
PTDCVYVMPTV [MYO7A_Y1668_S1666C]	5.31	8.41	5	3.34	4.95	1.08	1.06	7.37	1.1	6.63	3.92	2.4	4.49	1.01	0.716	0.642
LTTEVYFPSIK [C5orf64_Y60_A57T]	0.946	0.77	0.775	0.436	0.563	0.482	0.895	0.766	0.703	0.562	0.661	0.628	0.541	0.911	0.885	0.564
SDLTDYLMKIL [ACTA1_Y190_R185S]	1.14	0.535	0.532	0.578	0.507	0.582	1.22	0.789	1.1	0.445	0.732	0.648	0.571	1.16	0.903	0.608
AEEKEYHAEEG [EGFR_Y869_G873E]	1.29	0.633	0.605	0.649	0.451	0.494	1.15	0.84	1.01	0.445	0.747	0.815	0.573	0.994	0.746	0.552
CPPELYALMSD [ZAP70_Y569]	1.57	0.612	0.905	3.39	0.828	1.19	1.31	0.681	0.892	3.54	1	1.13	1.08	2.08	0.784	1.06
SAVTGYRVDVI [FN1_Y937]	0.546	0.425	0.398	0.368	0.353	0.335	0.566	0.432	0.616	0.358	0.534	0.377	0.374	0.84	0.514	0.452
RLLREYQELMN [KRT75_Y434]	0.759	0.746	0.785	0.691	0.421	0.465	0.817	0.67	1.11	0.376	0.583	0.613	0.458	1.04	0.995	3.41
PEVSGYCHCAD [TG_Y234]	2.1	0.976	1.11	3.57	1.2	1.14	2.79	1.83	2.21	0.936	1.56	1.4	1.08	0.912	0.549	0.565
MGSYNYLGFPR [SPTLC2_Y178_A182P]	0.806	0.511	2.29	5.53	0.735	0.59	0.748	1.04	3.81	6.35	1.48	2.77	1.39	0.921	1.92	2.84
KPGVNYYFQVS	1.22	0.573	2.49	0.699	0.5	0.522	1.35	0.895	1.44	0.873	2.05	0.602	0.526	1.01	2	1.3
LFPANYVAPMT [GRAP2_Y324]	0.827	0.446	0.535	3.55	0.397	0.418	0.91	0.713	0.649	0.551	0.617	1.31	0.551	0.828	0.835	0.663
MSRDVYSTDFF [NTRK2_Y702_YF]	0.691	2.65	1.06	0.756	2.73	0.486	0.732	0.568	0.728	5.05	0.718	0.774	1.28	0.835	0.659	0.516
IGEVVYQRAVM [GRIN2A_Y502]	0.869	1.14	0.434	0.883	1.57	1.46	0.856	8.27	0.688	0.513	0.595	0.554	2.19	0.752	0.484	0.477
